Results from the supplement of paper PMC10567573.

B1: ZNF207 (parent)
chain: FQPQPVQPQQGYIPPMAQPGLPPV
B2: WDFY1 (parent)
chain: LLIPKEDGVITASEDRTIRVWLKR

Variants of: B1
Assay: protein stability index of a GFP-peptide fusion (GPS, HEK-293T) (PSI 1-6); higher = more stable
Conditions: c terminus: a fixed tail appended
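Further: lentivirally expressed fusions sorted by FACS into six bins by GFP to DsRed ratio, PSI derived from sequencing read proportions per bin multiplied by bin number.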

Variant	protein stability index
Y12E	3.77
Y12W	2.6
Y12A	3.75
Y12R	3.66
Y12I	3.29
Y12H	3.54
Y12M	3.72
Y12N	3.77
Y12V	3.86
Y12Q	4.03
Y12T	3.69
Y12F	2.81
Y12G	3.53
Y12S	3.81
Y12L	3.81
Y12K	3.7
Y12D	3.73
Y12P	3.6
Y12C	3.55
Q7S	3.5
Q7L	3.04
Q7M	3.21
Q7Y	2.5
Q7R	2.83
Q7V	3.63
Q7W	2.25

Variant	protein stability index
Q10C	2.5
Q10R	2.79
Q10W	1.95
Q10P	3.07
Q10E	3.1
Q10L	2.16
Q10M	2.81
Q10N	3.28
Q10A	2.84
Q10D	3.54
Q10H	2.62
Q10V	2.04
Q10S	2.86
Q10F	2.31
Q10K	2.98
Q10I	2.12
Q10T	3.34
Q10G	3.39
Q10Y	2.64
P14I	2.63
P14T	2.75
P14Y	2.65
P14M	2.88
P14H	2.75
P14N	2.5
P14V	2.9

Variant	protein stability index
P14C	2.61
P14A	2.96
P14L	2.52
P14Q	2.74
P14E	2.86
P14R	2.81
P14W	1.98
P14G	2.79
P14K	2.83
P14F	2.93
P14D	3.37
P14S	3.08
P19C	3.1
P19G	3.12
P19A	3.32
P19S	3.19
P19H	3.19
P19F	2.38
P19L	2.7
M16W	2.06
M16N	3.48
M16V	3.64
M16I	3.3
M16G	3.49
M16K	3.21
M16C	3.08

Variant	protein stability index
M16R	2.97
M16Y	2.82
M16S	3.5
M16E	3.54
M16D	3.7
M16F	2.43
Q9G	2.74
Q9Y	2.32
Q9S	3.43
Q9E	3.45
Q9K	2.91
Q9N	2.72
Q9R	3.26
Q9T	3.01
Q9V	3.61
Q9I	2.89
Q9C	2.77
Q9A	3.35
Q9M	2.88
Q9H	3.24
Q9F	2.34
Q9W	1.88
Q9L	2.54
Q9D	3.59
A17T	3.22
A17Y	2.25

Variant	protein stability index
A17N	3.59
A17M	3.4
A17R	3.15
A17L	2.85
A17Q	3.39
A17F	2.5
A17S	3.86
A17K	3.04
A17C	3.27
A17D	3.35
A17G	2.98
A17H	3.12
A17P	3.04
A17W	1.93
A17E	3.42
A17I	3.17
A17V	2.96
L21W	2.26
L21K	3.48
L21M	3.68
L21D	4.12
L21G	3.24
L21R	3.38
L21F	2.66
L21C	3.64
L21V	2.73

Variant	protein stability index
L21E	4.13
I13A	3.8
I13C	3.33
I13K	2.85
I13E	3.71
I13G	3.29
I13Y	2.88
I13S	3.58
I13N	3.17
I13V	3.44
I13Q	3.59
I13R	3.16
I13H	3.54
I13M	2.99
I13D	3.57
I13F	3.4
I13W	2.56
I13L	3.52
G11M	2.66
G11V	2.56
G11N	2.93
G11R	3.21
G11Y	2.18
G11H	3.21
G11C	2.18
G11Q	3.18

Variant	protein stability index
G11I	2.29
G11A	3.03
G11W	2.19
G11S	2.8
G11L	2.65
G11P	2.74
G11D	3.63
G11F	2.45
G11K	2.89
G11E	3.69
G11T	2.6
P8H	2.89
P8A	3.27
P8D	3.32
P8R	2.61
P8C	2.54
P8V	2.92
P8S	2.97
P8L	3.19
P8Q	2.95
P8I	3.1
P8W	2.31
P8N	3.03
P8E	3.22
P8M	2.47
P8T	2.91

Variant	protein stability index
P8G	2.96
P8Y	2.53
P8K	3.15
P8F	2.88
V24Y	2.4
V24E	3.75
V24M	2.8
V24F	2.35
V24I	3.26
V24G	3.1
V24N	2.67
V24L	2.44
V24Q	3.33
V24S	2.93
V24H	2.71
V24W	1.8
V24C	2.95
V24D	3.9
V24R	3.38
V24K	2.92
Q18S	2.95
Q18W	2.03
Q18L	2.91
Q18N	3.11
Q18C	2.37
Q18R	3.37

Variant	protein stability index
Q18M	2.7
Q18K	2.88
P15T	3.14
P15M	2.62
P15C	2.45
P15D	3.04
P15S	2.87
P15V	3.23
P15Q	3.09
P15H	2.74
P15W	1.73
P15G	3.07
P15A	3.13
P15Y	2.66
P15E	2.96
P15R	2.97
P15N	3.45
P15F	2.3
P15K	2.81
P15I	2.17
P15L	2.72
P22L	2.99
P22A	3.37
P22M	2.4
P22W	1.85
P22E	3.08

Variant	protein stability index
P22N	2.74
P22Q	3.33
P22T	2.7
P22I	2.68
P22R	2.88
P22V	2.72
P22F	2.54
P22H	2.83
P22Y	2.29
P22C	2.38
P22D	3.06
P22K	3.4
P22S	2.13
P22G	2.74
G20R	3.33
G20L	3.15
G20Q	3.46
G20W	1.7
G20D	2.89
G20M	2.75
G20E	3.23
G20K	2.27
G20S	3.24
G20V	3.72
G20C	2.93
P23D	3.28

Variant	protein stability index
P23A	3.4
P23N	2.69
P23C	2.91
P23K	2.95
P23V	3.13
P23I	2.65
P23T	2.89
P23F	1.88
P23Q	3.14
P23E	3.07
P23M	2.9
P23S	3.19
P23L	3.04
P23H	2.77
P23G	2.27
P23R	3.02
P23W	1.7
P23Y	2.42

Variants of: B2
Assay: as above
Conditions: c terminus: a fixed tail appended

Variant	protein stability index
P4D	2.82
P4C	2.28
P4A	2.13
L2V	2.69
L2N	2.77
L2Q	3.1
L2F	1.25
L2I	2.22
L2W	1.76
L2R	1.93
L2K	3.31
L2A	2.88
L2Y	1.82
L2C	2.5
L2S	2.78
L2E	3.8
L2H	1.68
L2P	2.66
L2G	2.37

Variant	protein stability index
L2T	2.08
L2M	2.27
L2D	3.47
I3T	2.91
I3F	2.04
I3Y	1.89
I3H	2.45
I3A	3.62
I3R	2.71
I3M	1.95
I3N	3.77
I3E	3.36
I3D	3.09
I3Q	2.66
I3W	1.87
I3C	2.24
I3G	2.97
I3K	3.17
I3L	2.76

Variant	protein stability index
L1T	3.62
L1F	2.24
L1W	1.73
L1Y	2.55
L1I	2.1
L1N	3.1
L1A	2.5
L1S	2.93
L1K	2.74
L1P	4.03
L1D	3.54
L1M	3.12
L1C	2.35
L1Q	2.94
L1R	2.73
L1E	3.2
L1V	2.56
L1H	2.83
